Measured values as given in PMC4409726, “Characterization of chromosomal and megaplasmid partitioning loci in Thermus thermophilus HB27”.

T1: ParBc (Thermus thermophilus HB27, UniProt Q72H91 1-269)
T1 sequence: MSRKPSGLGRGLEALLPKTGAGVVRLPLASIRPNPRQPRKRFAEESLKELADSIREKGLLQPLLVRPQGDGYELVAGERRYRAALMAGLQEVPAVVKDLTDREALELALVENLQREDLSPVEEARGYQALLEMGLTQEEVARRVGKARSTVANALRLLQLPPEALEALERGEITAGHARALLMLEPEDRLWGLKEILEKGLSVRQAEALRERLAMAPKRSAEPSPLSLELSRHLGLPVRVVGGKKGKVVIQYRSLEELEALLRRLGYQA

T2: ParBm (Thermus thermophilus HB27, UniProt Q746H2 1-297)
T2 sequence: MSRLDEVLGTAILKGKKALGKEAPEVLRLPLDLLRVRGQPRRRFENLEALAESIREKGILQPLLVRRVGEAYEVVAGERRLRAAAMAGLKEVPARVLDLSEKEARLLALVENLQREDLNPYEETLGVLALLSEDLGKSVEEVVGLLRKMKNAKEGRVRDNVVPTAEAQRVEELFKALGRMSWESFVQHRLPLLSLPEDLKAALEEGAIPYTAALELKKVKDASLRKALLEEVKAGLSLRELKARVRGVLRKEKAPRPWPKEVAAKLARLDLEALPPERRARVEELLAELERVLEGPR


Columns and labels:
ParBc = biological target: T1, ParBc; experiment: EMSA; poly(dI-dC); WT competitor competes much better than mutant; 50 mM KCl, 10 mM Tris-HCl pH 7.0, 1 mM EDTA, 1 mM DTT, 4% glycerol, 0.02 ug/ul poly(dI-dC), 25 ul, 15 pmol FAM probe, 0 or 200 pmol ParB (competition), 25 C 30; settings: protein: recombinant; tags: His tag implied (pET21a, Ni-IDA); chain copies: 2; blunt
ParBm = biological target: T2, ParBm; experiment: as above; settings: protein: recombinant; tags: His tag implied (pET21a, Ni-IDA); chain copies: 2; blunt

| Binder | binding result (ParBc) | binding result (ParBm) |
| --- | --- | --- |
| WT parSc 25-bp probe (dsDNA) DNA 1: TGTTTCCCGTGAAACATCAGGCGCC DNA 2: GGCGCCTGATGTTTCACGGGAAACA | binds |  |
| WT parSm 18-bp probe (dsDNA) DNA 1: GCAAGGACGCGTCCTTCA DNA 2: TGAAGGACGCGTCCTTGC |  | binds |
